The source of these data is patent publication US20260274993A1 (HUMMINGBIRD BIOSCIENCE PTE, published 2026).

One test deals with T1, 3A6.
T1 construct: also called 3A6 antibody (containing VH4-34 antigen); 3A6 (VH4-34 antigen)
The test can be described thus: ELISA, human IgG1 antigen captured on anti-human IgG Fc.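 Note: humanized antibodies bound to human IgG1 antigen captured at 1 µg/ml on anti-human IgG Fc plates, detected with anti-mouse IgG Fc/HRP, VSTB112 serving as negative control protein.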 For orientation: ELISA stands for enzyme-linked immunosorbent assay.

The next test deals with T2, 3A6 mutant FR1.
T2 construct: also called 3A6 FR1; 3A6-FR1 (VH4-34 FR1 mutant)
T2 sequence (VH, as listed by the source, chain 1 of 2): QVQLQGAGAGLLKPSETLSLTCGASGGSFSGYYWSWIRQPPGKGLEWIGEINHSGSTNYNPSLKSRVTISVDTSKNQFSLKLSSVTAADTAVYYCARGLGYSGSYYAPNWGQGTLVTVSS
T2 sequence (VL, as listed by the source, chain 2 of 2): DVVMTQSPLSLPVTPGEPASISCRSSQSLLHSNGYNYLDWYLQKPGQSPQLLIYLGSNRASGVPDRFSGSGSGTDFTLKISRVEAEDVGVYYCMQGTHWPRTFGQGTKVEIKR
The description is as above.

The target in test [1] is T3, antibodies containing VH4-34 endogenously expressed by cell line OCI-Ly3.
T3 construct: Whole, on cells; also called VH4-34-expressing cell line OCI-Ly3
Kind of test: flow cytometry, EC50 of % parent, OCI-Ly3 cells endogenously expressing VH4-34. On the technique in general: A flow cytometer gives signals particle by particle.
Method: (§1) Binding was assessed by FACS. Briefly, cells were assayed in PBS with 0.5% BSA and 2 mM EDTA. Live dead staining was performed with a live dead cell dye for 15 minutes at 4° C. […] Following this, cells were incubated with a secondary PE goat anti-mouse IgG (1:300) for 30 mins at 4° C. and PE readout was measured.

Test [2] concerns the target T3, antibodies containing VH4-34 …. The test can be described thus: flow cytometry, EC50 of MFI, OCI-Ly3 cells endogenously expressing VH4-34.
Method: as §1

T1 sequence (VH, as listed by the source, chain 1 of 2): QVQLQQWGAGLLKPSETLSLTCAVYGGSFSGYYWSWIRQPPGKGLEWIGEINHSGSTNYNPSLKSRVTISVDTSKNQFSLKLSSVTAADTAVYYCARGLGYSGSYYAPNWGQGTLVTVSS
T1 sequence (VL, as listed by the source, chain 2 of 2): as the sequence (VL, as listed by the source, chain 2 of 2) above
Method for 3A6 mutant FR1: The binding affinity of each humanized antibody for 3A6 antibody (containing VH4-34 antigen), 3A6-FR1 (VH4-34 FR1 mutant) and VSTB112 (negative control protein) was evaluated.
Plates were coated with 1 ug/ml of anti-human IgG Fc overnight at 4° C. Plates were washed thrice with PBS/0.05% Tween (PBST) before blocking with 5% BSA for 1 h at room temp (RT). Plates were then washed again before addition of 1 μg/ml of 3A6 (VH4-34 antigen), 3A6-FR1 (VH4-34 FR1 mutant) or VSTB112 (negative control protein) human IgG1 proteins. Plates were washed thrice. […] After washing the plates, anti-mouse IgG Fc/HRP diluted 1:5000 in 1% BSA was added and incubated for 1 h at RT. Plates were washed before detection using 1-step ELISA substrate.

B1: D011-7016-LD2 H4/L4 IgG2a (antibody, V domains shown)
VH: QVQLQESGPGLVKPSETLSLTCTVSWDAITSGYWNWVRQPPGNKLEYMGYISYSGSAHYNPSLKSRITISRDTSKNQYSLKLSSVTAADTAVYYCASYSFAYWGQGTLVTVSS
VL: EIVLTQSPDFQSVTPKEKVTITCRASQSIDNQLHWYQQKPDQSPKLLIKYASQSISGVPSRFSGSGSGTDFTLTISSLEAEDAATYFCQQSYGWPYTFGGGTKLEIKR
As usually defined, the EC50 is the concentration that produces a half-maximal response. B1 returned a concentration giving a half-maximal response (EC50) with 3A6 of 0.0365 nM. Further, the binding result with 3A6 mutant FR1 is recorded as “no binding (tested: 1 µg/ml (highest concentration))”.

B2: D011-7016-LD2 H5/L3 IgG2a (antibody, V domains shown)
VH: QVQLQESGPGLVKPSQTLSLTCTVSWDAITSGYWNWVRQHPGNKLEYMGYISYSGSAHYNPSLKSRITISRDTSKNQYSLKLSSVTAADTAVYYCASYSFAYWGQGTLVTVSS
VL: DIQMTQSPSSLSASVGDRVTITCRASQSIDNQLHWYQQKPGKSPNLLINYASQSISGVPSRFSGSGSGTDFTLTISSLQPEDFATYFCQQSYGWPYTFGGGTKVEIKR
For B2, the EC50 with 3A6 turned out to be 0.282 nM. In the test with 3A6 mutant FR1, the binding result was “no binding (tested: 1 µg/ml (highest concentration))”.

B3: D011-7016-LD2 H1/L2 IgG2a (antibody, V domains shown)
VH: QVQLQESGPGLVKPSQTLSLTCTVSWDAITSGYWNWVRQHPGKGLEYMGYISYSGSAHYNPSLKSRITISRDTSKNQYSLKLSSVTAADTATYYCASYSFAYWGQGTLVTVSS
VL: DIVMTQSPPSLSVTPGESASISCRASQSIDNQLHWYLQKPGQSPQLLINYASQSISGVTDRFSGSGSGTDFTLKISRVEAEDVGMYFCQQSYGWPYTFGGGTKVEIKR
In the test with 3A6, B3 returned an EC50 of 0.0427 nM. Further, the binding result in the test with 3A6 mutant FR1 is recorded as “no binding (tested: 1 µg/ml (highest concentration))”.

B4: D011-7016-LD2 H1/L1 IgG2a (antibody, V domains shown)
VH: QVQLQESGPGLVKPSQTLSLTCTVSWDAITSGYWNWVRQHPGKGLEYMGYISYSGSAHYNPSLKSRITISRDTSKNQYSLKLSSVTAADTATYYCASYSFAYWGQGTLVTVSS
VL: DIVMTQSPPSLSVTPGEPASLSCRASQSIDNQLHWYLQKPGQSPQLLINYASQSISGVTDRFSGSGSGTDFTLKISRVEAEDVGVYFCQQSYGWPYTFGGGTKVEIKR
In the case of B4, the midpoint of the response with 3A6, the EC50, lay at 0.0446 nM. Also, the binding result with 3A6 mutant FR1 is reported as “no binding (tested: 1 µg/ml (highest concentration))”.

B5: D011-7016-LD2 H3/L4 IgG2a (antibody, V domains shown)
VH: QVQLQESGPGLVKPSETLSLTCSVSWDAITSGYWNWVRQPPGNKLEYMGYISYSGSAHYNPSLKSRITISRDTSKNQYSLTLTSMTAADTALYYCASYSFAYWGQGTLVTVSS
VL: EIVLTQSPDFQSVTPKEKVTITCRASQSIDNQLHWYQQKPDQSPKLLIKYASQSISGVPSRFSGSGSGTDFTLTISSLEAEDAATYFCQQSYGWPYTFGGGTKLEIKR
For B5, the 50% effective concentration (EC50) in the test with 3A6 was determined as 0.0627 nM. Further, the binding result with 3A6 mutant FR1 is recorded as “no binding (tested: 1 µg/ml (highest concentration))”.

B6: D011-7016-LD2 H1/L4 IgG2a (antibody, V domains shown)
VH: QVQLQESGPGLVKPSQTLSLTCTVSWDAITSGYWNWVRQHPGKGLEYMGYISYSGSAHYNPSLKSRITISRDTSKNQYSLKLSSVTAADTATYYCASYSFAYWGQGTLVTVSS
VL: EIVLTQSPDFQSVTPKEKVTITCRASQSIDNQLHWYQQKPDQSPKLLIKYASQSISGVPSRFSGSGSGTDFTLTISSLEAEDAATYFCQQSYGWPYTFGGGTKLEIKR
For the molecule B6, the EC50 in test [1] came out at 0.00765 nM; in test [2], 0.46 nM; with 3A6, 0.0234 nM. Besides, the binding result in the test with 3A6 mutant FR1 is on record as “no binding (tested: 1 µg/ml (highest concentration))”.

B7: D011-7016-LD2 H3/L1 IgG2a (antibody, V domains shown)
VH: QVQLQESGPGLVKPSETLSLTCSVSWDAITSGYWNWVRQPPGNKLEYMGYISYSGSAHYNPSLKSRITISRDTSKNQYSLTLTSMTAADTALYYCASYSFAYWGQGTLVTVSS
VL: DIVMTQSPPSLSVTPGEPASLSCRASQSIDNQLHWYLQKPGQSPQLLINYASQSISGVTDRFSGSGSGTDFTLKISRVEAEDVGVYFCQQSYGWPYTFGGGTKVEIKR
For B7, the EC50 in test [1] was 0.00375 nM; in test [2], 0.292 nM; in the test with 3A6, 0.0398 nM. Moreover, the binding result in the test with 3A6 mutant FR1 was “no binding (tested: 1 µg/ml (highest concentration))”.

B8: D011-7016-LD2 H4/L3 IgG2a (antibody, V domains shown)
VH: QVQLQESGPGLVKPSETLSLTCTVSWDAITSGYWNWVRQPPGNKLEYMGYISYSGSAHYNPSLKSRITISRDTSKNQYSLKLSSVTAADTAVYYCASYSFAYWGQGTLVTVSS
VL: DIQMTQSPSSLSASVGDRVTITCRASQSIDNQLHWYQQKPGKSPNLLINYASQSISGVPSRFSGSGSGTDFTLTISSLQPEDFATYFCQQSYGWPYTFGGGTKVEIKR
B8 had an EC50 in the test with 3A6 of 0.011 nM. Besides, in the test with 3A6 mutant FR1, the binding result is reported as “no binding (tested: 1 µg/ml (highest concentration))”.

B9: D011-7016-LD2 H5/L4 IgG2a (antibody, V domains shown)
VH: QVQLQESGPGLVKPSQTLSLTCTVSWDAITSGYWNWVRQHPGNKLEYMGYISYSGSAHYNPSLKSRITISRDTSKNQYSLKLSSVTAADTAVYYCASYSFAYWGQGTLVTVSS
VL: EIVLTQSPDFQSVTPKEKVTITCRASQSIDNQLHWYQQKPDQSPKLLIKYASQSISGVPSRFSGSGSGTDFTLTISSLEAEDAATYFCQQSYGWPYTFGGGTKLEIKR
As to B9, the EC50 in test [1] was determined as 0.00251 nM; in test [2] it was 0.282 nM; with 3A6 it was 0.0495 nM. In the test with 3A6 mutant FR1, the binding result is on record as “no binding (tested: 1 µg/ml (highest concentration))”.

B10: D011-7016-LD2 H3/L3 IgG2a (antibody, V domains shown)
VH: QVQLQESGPGLVKPSETLSLTCSVSWDAITSGYWNWVRQPPGNKLEYMGYISYSGSAHYNPSLKSRITISRDTSKNQYSLTLTSMTAADTALYYCASYSFAYWGQGTLVTVSS
VL: DIQMTQSPSSLSASVGDRVTITCRASQSIDNQLHWYQQKPGKSPNLLINYASQSISGVPSRFSGSGSGTDFTLTISSLQPEDFATYFCQQSYGWPYTFGGGTKVEIKR
Molecule B10 registered an EC50 with 3A6 of 0.169 nM. For the same molecule, in the test with 3A6 mutant FR1, the binding result was “no binding (tested: 1 µg/ml (highest concentration))”.

B11: D011-7016-LD2 H4/L1 IgG2a (antibody, V domains shown)
VH: QVQLQESGPGLVKPSETLSLTCTVSWDAITSGYWNWVRQPPGNKLEYMGYISYSGSAHYNPSLKSRITISRDTSKNQYSLKLSSVTAADTAVYYCASYSFAYWGQGTLVTVSS
VL: DIVMTQSPPSLSVTPGEPASLSCRASQSIDNQLHWYLQKPGQSPQLLINYASQSISGVTDRFSGSGSGTDFTLKISRVEAEDVGVYFCQQSYGWPYTFGGGTKVEIKR
Turning to B11, the 50% effective concentration (EC50) with 3A6 turned out to be 0.0521 nM. Further, the binding result with 3A6 mutant FR1 is recorded as “no binding (tested: 1 µg/ml (highest concentration))”.

B12: D011-7016-LD2 H1/L3 IgG2a (antibody, V domains shown)
VH: QVQLQESGPGLVKPSQTLSLTCTVSWDAITSGYWNWVRQHPGKGLEYMGYISYSGSAHYNPSLKSRITISRDTSKNQYSLKLSSVTAADTATYYCASYSFAYWGQGTLVTVSS
VL: DIQMTQSPSSLSASVGDRVTITCRASQSIDNQLHWYQQKPGKSPNLLINYASQSISGVPSRFSGSGSGTDFTLTISSLQPEDFATYFCQQSYGWPYTFGGGTKVEIKR
B12 displayed an EC50 with 3A6 of 0.0469 nM. Further, in the test with 3A6 mutant FR1, the binding result is reported as “no binding (tested: 1 µg/ml (highest concentration))”.

B13: D011-7016-LD2 H3/L2 IgG2a (antibody, V domains shown)
VH: QVQLQESGPGLVKPSETLSLTCSVSWDAITSGYWNWVRQPPGNKLEYMGYISYSGSAHYNPSLKSRITISRDTSKNQYSLTLTSMTAADTALYYCASYSFAYWGQGTLVTVSS
VL: DIVMTQSPPSLSVTPGESASISCRASQSIDNQLHWYLQKPGQSPQLLINYASQSISGVTDRFSGSGSGTDFTLKISRVEAEDVGMYFCQQSYGWPYTFGGGTKVEIKR
Molecule B13 showed an EC50 with 3A6 of 0.053 nM. Besides, the binding result with 3A6 mutant FR1 is given as “no binding (tested: 1 µg/ml (highest concentration))”.
